Measurements taken from article PMC2811064.

Target: semi-synthetic KcsA^(70,82) channel (UniProt P0A334)
Assay: SDS-PAGE

- stoichiometry N: 4
Substance: semi-synthetic KcsA^(70,82) channel (from UniProt P0A334 1-69; P0A334 82-160) (natural protein)
